Paper doi:10.1101/296517

Experiments:
[1] = target: giantin (rat hepatocytes) (rat (endogenous in primary hepatocytes)); assay: Western blot of lysates
[2] = target: giantin (human (endogenous in HeLa, LNCaP, PC-3, liver tissue)) (UniProt Q14789); assay: Western blot of lysates; conditions: remark: other sources report otherwise

Substance | stoichiometry N [1] | stoichiometry N [2]
giantin (rat hepatocytes) (natural protein) | 2 | 
giantin, Q14789 1-3259 |  | 2
